# Positions count from the first letter of the chain named.
# T1: Nrd1 307-491 H376A (Saccharomyces cerevisiae, UniProt P53617 307-491, H376A)
# T1 sequence: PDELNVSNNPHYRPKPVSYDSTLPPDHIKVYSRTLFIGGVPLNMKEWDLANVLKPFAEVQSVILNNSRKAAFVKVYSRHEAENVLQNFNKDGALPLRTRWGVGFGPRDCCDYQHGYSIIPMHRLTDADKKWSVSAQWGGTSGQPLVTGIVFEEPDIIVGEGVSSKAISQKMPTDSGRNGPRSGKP
# T2: Nrd1 307-491 N349A (Saccharomyces cerevisiae, UniProt P53617 307-491, N349A)
# T2 sequence: T1 sequence with N43A, A70H
# T3: Nrd1 307-491 K435D (Saccharomyces cerevisiae, UniProt P53617 307-491, K435D)
# T3 sequence: T1 sequence with A70H, K129D
# T4: Nrd1 307-491 R405A (Saccharomyces cerevisiae, UniProt P53617 307-491, R405A)
# T4 sequence: T1 sequence with A70H, R99A
# T5: Nrd1 307-491 H385A (Saccharomyces cerevisiae, UniProt P53617 307-491, H385A)
# T5 sequence: T1 sequence with A70H, H79A
# T6: Nrd1 307-491 T340A (Saccharomyces cerevisiae, UniProt P53617 307-491, T340A)
# T6 sequence: T1 sequence with T34A, A70H
# B1: GUAA (ssRNA)
# RNA: GUAA
# Key:
# Assay in all cases: fluorescence anisotropy; FA: 10 nM RNA, 50 mM sodium phosphate pH 8, 150 mM NaCl, 10 mM beta-mercaptoethanol, 20 C (protein stock in 300 mM NaCl); NMR: same buffer with 300 mM NaCl, 20
# Conditions in all cases: protein: recombinant; tags: C-terminal His6; label: 5' fluorescein or TAMRA (FA); unlabeled (NMR)
# Nrd1 307-491 H376A = target: T1, Nrd1 307-491 H376A
# Nrd1 307-491 N349A = target: T2, Nrd1 307-491 N349A
# Nrd1 307-491 K435D = target: T3, Nrd1 307-491 K435D
# Nrd1 307-491 R405A = target: T4, Nrd1 307-491 R405A
# Nrd1 307-491 H385A = target: T5, Nrd1 307-491 H385A
# Nrd1 307-491 T340A = target: T6, Nrd1 307-491 T340A
binder,measurement,setting,value
B1,Kd,Nrd1 307-491 H376A,59.1 ± 2.6 µM
same,Kd,Nrd1 307-491 N349A,10.2 ± 0.5 µM
same,Kd,Nrd1 307-491 K435D,16.2 ± 1.7 µM
same,Kd,Nrd1 307-491 R405A,17.3 ± 0.9 µM
same,Kd,Nrd1 307-491 H385A,10.3 ± 1.7 µM
same,Kd,Nrd1 307-491 T340A,153 ± 32.8 µM

# — PMC4081072, “Structure and semi-sequence-specific RNA binding of Nrd1”
